Data set [1] has as its target T1, wild-type Salinibacter ruber SSB (SrSSB) (Salinibacter ruber DSM 13855).
T1 chain: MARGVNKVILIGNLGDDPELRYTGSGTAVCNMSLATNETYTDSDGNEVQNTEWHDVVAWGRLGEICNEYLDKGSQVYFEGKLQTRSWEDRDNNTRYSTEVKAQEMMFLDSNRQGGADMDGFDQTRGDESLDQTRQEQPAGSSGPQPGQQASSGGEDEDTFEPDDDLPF
In words: SPR; 10 mM Tris-HCl pH 7, 10 mM NaCl; Chi2 0.529. As to conditions: chain copies: octamer/dodecamer mixture at 0.15 M NaCl; mostly octamer at 2 M NaCl (stated); label: 5'-biotin. From the text:
(§1) Higher binding affinity of the D17K D71K mutant was also confirmed by probing the protein-ssDNA interaction strength directly with the use of Surface Plasmon Resonance on a T200 instrument (BIACORE). This biosensor-based technique enables real-time measurement of binding parameters that enables calculation of equilibrium dissociation constant (KD) of different complexes, including nucleoprotein complexes. To ensure that the measurement is not biased by nucleotide sequence, a randomly generated, 150 nucleotide, 5′-biotynylated ssDNA oligonucleotide was used (Table 2, SEQ ID NO:11). Oligonucleotides were attached to the surface of the SA S-type chip (BIACORE) via biotin-streptavidin interaction. Next, both proteins were run in dilutions: 10 nM, 20 nM, 40 nM, 100 nM, 150 nM, 200 nM, 300 nM over the chip surface in MB buffer (10 mM Tris-HCl pH 7, 10 mM NaCl). The binding event was detected by mass change on the chip surface, which enabled real time measurements of the kinetic parameters of protein-ssDNA interaction.

Data set [2] has as its target T2, SrSSB D17K D71K mutant (Salinibacter ruber).
T2 chain: T1 chain with D17K, D71K
In words: SPR; 10 mM Tris-HCl pH 7, 10 mM NaCl; Chi2 0.624. Conditions: chain copies: octamer (stated); label: 5'-biotin.
Source text: as §1
In general terms: SPR reads the build-up and loss of mass on a sensor chip optically.

Data set [3] has as its target T2, SrSSB D17K D71K mutant. The experiment in a line: beacon dehybridization fluorescence, 2 uM protein; level similar to wt at half the concentration; maintained in high NaCl, KCl, MgCl2; 25 C. Conditions: chain copies: octamer (stated); label: dT-DABCYL and dT-FAM internal; partial hairpin with short 8 bp stem and 24 nt single-stranded loop. Here is the method:
(§2) Wild-type S.ruber SSB and the D17K D71K mutant were tested for their ability to bind ssDNA in reaction buffer supplemented with NaCl, KCl, MgCl₂ and CaCl₂. E. coli SSB was used as a well characterized, reference protein.
(§3) Reactions contained 0.125 μM of molecular beacon and 0.25 μM of E. coli SSB tetramer (single binding unit), 4 μM of wt SrSSB and 2 μM of D17K D71K. Reaction mixtures were set up in triplicates in 50 μl of reaction buffer MB (10 mM Tris-HCl pH 7, 10 mM NaCl) containing the fluorescent probe and supplemented with an indicated concentration of NaCl, KCl or MgCl₂ in 96-well plate (Corning). The binding reaction was initiated by addition of the indicated SSB protein, next reactions were incubated at 25° C. for 15′ and the fluorescence was measured with excitation at 495 nm and emission at 520 nm on the Gemini plate reader (Molecular Devices). All graphs were normalized to 100% of initial response, measured in fluorescence units.

In the next data set the target is E. coli SSB (Escherichia coli, UniProt P0AGE0 P0AGE0:2-178). In words: beacon fluorescence, 0.25 uM tetramer; binding decreases significantly with increasing concentration of all tested salts; 25 C. As to conditions: chain copies: tetramer (stated); label: dT-DABCYL and dT-FAM internal; partial hairpin with short 8 bp stem and 24 nt single-stranded loop. Here is the method: as §2, §3
E. coli SSB, sequence (P0AGE0 2-178, one chain of several): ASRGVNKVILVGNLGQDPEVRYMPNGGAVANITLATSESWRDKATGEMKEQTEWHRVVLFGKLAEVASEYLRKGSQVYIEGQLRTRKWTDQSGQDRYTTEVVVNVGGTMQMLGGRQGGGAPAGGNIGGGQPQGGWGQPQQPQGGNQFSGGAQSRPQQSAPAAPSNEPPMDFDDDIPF

The target of data set [4] is T1, wild-type Salinibacter ruber SSB (SrSSB). The experiment in a line: beacon dehybridization fluorescence, 4 uM protein; binding maintained with NaCl to 1 M, KCl to 1 M, MgCl2 to 250 mM; 25 C. As to conditions: chain copies: octamer/dodecamer mixture at 0.15 M NaCl; mostly octamer at 2 M NaCl (stated); label: dT-DABCYL and dT-FAM internal; partial hairpin with short 8 bp stem and 24 nt single-stranded loop. How it is done: as §2, §3

For data set [5] the target is unchanged. The experiment in a line: structure; PDB 5ODN; d(T)8 soaked; one ssDNA fragment per OB-fold; 0.25 M MgCl2, 1 M ammonium sulphate, pH 8.0. As to conditions: chain copies: octamer/dodecamer mixture at 0.15 M NaCl; mostly octamer at 2 M NaCl (stated). Here is the method: Small, prism-shaped crystals of wild-type S. ruber SSB were obtained in sitting drops consisting of 1 μl of protein solution (5 mg/ml) containing 20 μM of d(T)₇₅ oligonucleotide and 1 μl of reservoir solution (27% w/v PEG 3350, 100 mM Tris-HCl pH 8.0, 0.25M MgCl₂, 1 M ammonium sulphate). Soaking experiments were performed by adding d(T)₈ oligonucleotide to the drops containing formed crystals, to a final concentration of 0.25 μM.

Experimental findings from patent publication US20190376122, “SINGLE-STRAND BINDING PROTEIN” (Universitetet I Tromsø - Norges Arktiske Universitet, published 2019) are described below.

Substitutions are numbered along the chain they refer to.

B1: SPR 150nt oligonucleotide (ssDNA)
DNA: AAAGGGTATTGACGGACCAGATGTAGCGTGGCAGAAAAGGGTATTGACGGACCAGATGTAGCGTGGCAGAGACTGAAAGGGTATTGACGGACCAGATGTAGCGTGGCAGAAAAGGGTATTGACGGACCAGATGTAGCGTGGCAGAGACTG
As a reminder, the Kd is the free concentration of one partner at which half of the binding sites on the other are occupied at equilibrium, for simple one-to-one binding. On to B1, for which the Kd in data set [1] turned out to be 34.3 nM; with SrSSB D17K D71K mutant [2], 19.1 nM.

B2: MB molecular beacon (ssDNA)
DNA: GGCCCGTAGGAGGAAAGGACATCTTCTAGCATACGGGCCGTCAAGTTCATGGCCAGTCAAGTCGTCAGAAATTTCGCACCAC
In the case of B2, the binding result (with SrSSB D17K D71K mutant [3]; in the data set with E. coli SSB; in data set [4]) was “binds” each time.

B3: d(T)8 (ssDNA)
DNA: TTTTTTTT
Take B3: the binding result in data set [5] is on record as “binds”.
